Laboratory results taken from paper doi:10.1101/2021.11.12.467822.

Experiments:
[1] = target: fluorescently labeled K48-Ub4 (S20C on the most distal Ub, Alexa Fluor 488) (UniProt P0CG48); experiment: fluorescence polarisation
full-length (FL) UBQLN2 = full-length (FL) UBQLN2 (UniProt Q9UHD9); experiment: NMR titration

Row | Substance | Kd [1] [nM] | Kd (full-length (FL) UBQLN2) [nM]
1 | UBQLN2 450-624 (from UniProt Q9UHD9 450-624) (domain or fragment) | 2700 | 
2 | ubiquitin (Ub) (from UniProt P0CG48 1-76) (natural protein; other documents disagree on this pair) |  | 3000
